Experimental findings from the RNAGym collection of RNA variant scans (doi:10.7554/elife.80360) are described below.

B1: Hairpin Ribozyme (parent)
chain: GUCCUCUUUCACGUGCGCGUGAAAGAGAGAAGUGAACCAGAGAAACACACGUUGUGGUAUAUUACCUGGUA

The variants in this data set derive from B1. Nature of the data set: self-cleavage, relative activity (ratio to wild type); higher = more cleavage; co-transcriptional.
GUCCUCUUUCACGUGCGCGUGAAAGAGAGAAGUGACCCAGAUAAACACACGUUGUGGUAUAUUACCUGGUA [A36C G42U]: the self-cleavage turned out to be 0.116.

Regarding GUCCUCUUUCACGUGCGCGUGAAAGAGAGAAGUGACCCAGAAAAACACACGUUGUGGUAUAUUACCUGGUA [A36C G42A], the self-cleavage was 0.0682.

Take GUCCUCUUUCACGUGCGCGUGAAAGAGAGAAGUGACCCAGAGAAACACACGUUGUGGUUUAUUACCUGGUA [A36C A59U]: the self-cleavage was 0.157.

Take GUCCUCUUUCACGUGCGCGUGAAAGAGAGAAGUGAGCCAGAGGAACACACGUUGUGGUAUAUUACCUGGUA [A36G A43G]: the self-cleavage came out at 0.0267.

In the case of GUCCUCUUUCACGUGCGCGUGAAAGAGAGAAGUGACCCAGAGAAACACACGUUGUGGUACAUUACCUGGUA [A36C U60C], the self-cleavage was determined as 0.794.

In the case of GUCCUCUUUCACGUGCGCGUGAAAGAGAGAAGUGACCCAGAGAAACACACGUUGUGGUAGAUUACCUGGUA [A36C U60G], the self-cleavage came to 0.361.

Regarding GUCCUCUUUCACGUGCGCGUGAAAGAGAGAAGUGACCCAGAGAAACCCACGUUGUGGUAUAUUACCUGGUA [A36C A47C], the self-cleavage was 0.262.

For GUCCUCUUUCACGUGCGCGUGAAAGAGAGAAGUGACCCAGAGAAACUCACGUUGUGGUAUAUUACCUGGUA [A36C A47U], the self-cleavage came out at 0.29.

With GUCCUCUUUCACGUGCGCGUGAAAGAGAGAAGUGAGCCAGAGAAACACACGUUGUGGUAUAAUACCUGGUA [A36G U62A], the self-cleavage was 0.179.

Regarding GUCCUCUUUCACGUGCGCGUGAAAGAGAGAAGUGAGCCAGAGAAACACAAGUUGUGGUAUAUUACCUGGUA [A36G C50A], the self-cleavage amounted to 0.34.

Take GUCCUCUUUCACGUGCGCGUGAAAGAGAGAAGUGAGCCAGAGAAACACACGUUGUGGUAUAUUACCUGGUA [A36G]: the self-cleavage is 1.03.

Take GUCCUCUUUCACGUGCGCGUGAAAGAGAGAAGUGACCCAGAGAAAAACACGUUGUGGUAUAUUACCUGGUA [A36C C46A]: the self-cleavage stood at 0.026.

As to GUCCUCUUUCACGUGCGCGUGAAAGAGAGAAGUGAGCCAGCGAAACACACGUUGUGGUAUAUUACCUGGUA [A36G A41C], the self-cleavage is 1.1.

Turning to GUCCUCUUUCACGUGCGCGUGAAAGAGAGAAGUGAGCCAGAGAAACACACGUUGUGGUAUAUUAGCUGGUA [A36G C65G], the self-cleavage was 0.138.

As to GUCCUCUUUCACGUGCGCGUGAAAGAGAGAAGUGAGCCAGAGAAACACACGUUGUGGUAUAUUAUCUGGUA [A36G C65U], the self-cleavage came to 0.267.

With GUCCUCUUUCACGUGCGCGUGAAAGAGAGAAGUGAGCCAGAGAAACACACGGUGUGGUAUAUUACCUGGUA [A36G U52G], the self-cleavage turned out to be 0.882.

Take GUCCUCUUUCACGUGCGCGUGAAAGAGAGAAGUGAGCCAGAGAAACACACGUCGUGGUAUAUUACCUGGUA [A36G U53C]: the self-cleavage worked out at 1.08.

With GUCCUCUUUCACGUGCGCGUGAAAGAGAGAAGUGACCCAGAGAAACACACGGUGUGGUAUAUUACCUGGUA [A36C U52G], the self-cleavage was found to be 0.558.

Take GUCCUCUUUCACGUGCGCGUGAAAGAGAGAAGUGACCCAGAGAAACACACGAUGUGGUAUAUUACCUGGUA [A36C U52A]: the self-cleavage amounted to 0.768.

Turning to GUCCUCUUUCACGUGCGCGUGAAAGAGAGAAGUGAGCCAGAGAAACAAACGUUGUGGUAUAUUACCUGGUA [A36G C48A], the self-cleavage came to 0.196.

Consider GUCCUCUUUCACGUGCGCGUGAAAGAGAGAAGUGAGCCAGAGAAACAUACGUUGUGGUAUAUUACCUGGUA [A36G C48U], for which the self-cleavage worked out at 0.228.

As to GUCCUCUUUCACGUGCGCGUGAAAGAGAGAAGUGACCCAGAGAAACACACGUUGUGGUAUAUCACCUGGUA [A36C U63C], the self-cleavage was 0.259.

Consider GUCCUCUUUCACGUGCGCGUGAAAGAGAGAAGUGACCCAAAGAAACACACGUUGUGGUAUAUUACCUGGUA [A36C G40A], for which the self-cleavage is 0.162.

For the variant GUCCUCUUUCACGUGCGCGUGAAAGAGAGAAGUGAGCCAGAGAAACACACGUUGUGGUAUAUUACCUGGAA [A36G U70A], the self-cleavage turned out to be 1.11.

For GUCCUCUUUCACGUGCGCGUGAAAGAGAGAAGUGAGCCAGAGAAACACACGUUGUGGUAUAUUACCUGGCA [A36G U70C], the self-cleavage came out at 1.35.

GUCCUCUUUCACGUGCGCGUGAAAGAGAGAAGUGACCUAGAGAAACACACGUUGUGGUAUAUUACCUGGUA [A36C C38U]: the self-cleavage is 0.274.

Consider GUCCUCUUUCACGUGCGCGUGAAAGAGAGAAGUGACCGAGAGAAACACACGUUGUGGUAUAUUACCUGGUA [A36C C38G], for which the self-cleavage was found to be 0.117.

Consider GUCCUCUUUCACGUGCGCGUGAAAGAGAGAAGUGACCAAGAGAAACACACGUUGUGGUAUAUUACCUGGUA [A36C C38A], for which the self-cleavage was found to be 0.253.

In the case of GUCCUCUUUCACGUGCGCGUGAAAGAGAGAAGUGAGCCAGAGAAACGCACGUUGUGGUAUAUUACCUGGUA [A36G A47G], the self-cleavage stood at 0.106.

On to GUCCUCUUUCACGUGCGCGUGAAAGAGAGAAGUGACCCAGAGAAACAUACGUUGUGGUAUAUUACCUGGUA [A36C C48U], for which the self-cleavage came out at 0.0598.

GUCCUCUUUCACGUGCGCGUGAAAGAGAGAAGUGAGCCAGACAAACACACGUUGUGGUAUAUUACCUGGUA [A36G G42C]: the self-cleavage amounted to 0.347.

Turning to GUCCUCUUUCACGUGCGCGUGAAAGAGAGAAGUGAGCCAGAGAAACACACGUUGUGGUAUAUUACCGGGUA [A36G U67G], the self-cleavage was 0.19.

GUCCUCUUUCACGUGCGCGUGAAAGAGAGAAGUGAGCCAGAGAAAGACACGUUGUGGUAUAUUACCUGGUA [A36G C46G]: the self-cleavage is 0.178.

Turning to GUCCUCUUUCACGUGCGCGUGAAAGAGAGAAGUGACCCAGAGAAACACAAGUUGUGGUAUAUUACCUGGUA [A36C C50A], the self-cleavage stood at 0.0511.

With GUCCUCUUUCACGUGCGCGUGAAAGAGAGAAGUGACCCAGAGAAACACAGGUUGUGGUAUAUUACCUGGUA [A36C C50G], the self-cleavage turned out to be 0.131.

As for GUCCUCUUUCACGUGCGCGUGAAAGAGAGAAGUGAGCCAGAGAACCACACGUUGUGGUAUAUUACCUGGUA [A36G A45C], the self-cleavage was found to be 0.189.

In the case of GUCCUCUUUCACGUGCGCGUGAAAGAGAGAAGUGACCCAGAGAAACACACGUUGUGGUAUAUUUCCUGGUA [A36C A64U], the self-cleavage was 0.309.

Take GUCCUCUUUCACGUGCGCGUGAAAGAGAGAAGUGAGCCAGAGAAACACACGUUGUGGUAUAUCACCUGGUA [A36G U63C]: the self-cleavage was found to be 0.201.
